As a reminder, the Kd is the concentration at which binding is half-saturated. Low values mean a tighter complex, high ones a looser complex.

In one assay the target is PP1CA-HRAS (Homo sapiens, UniProt P62136). Put plainly: SPR. A general note: Surface plasmon resonance follows binding to a sensor surface in real time, without labels.
A further assay deals with PP1CA-KRAS (Homo sapiens, UniProt P62136). Put plainly: SPR.
A further assay has as its target PP1CA-NRAS (Homo sapiens, UniProt P62136). Put plainly: SPR.
The next assay has as its target PP1CA-MRAS (Homo sapiens, UniProt P62136). Put plainly: ITC. A general note: ITC needs no label: the signal is the heat of the interaction.

B1: SHOC2 (protein)
chain: MSSSLGKEKDSKEKDPKVPSAKEREKEAKASGGFGKESKEKEPKTKGKDAKDGKKDSSAAQPGVAFSVDNTIKRPNPAPGTRKKSSNAEVIKELNKCREENSMRLDLSKRSIHILPSSIKELTQLTELYLYSNKLQSLPAEVGCLVNLMTLALSENSLTSLPDSLDNLKKLRMLDLRHNKLREIPSVVYRLDSLTTLYLRFNRITTVEKDIKNLSKLSMLSIRENKIKQLPAEIGELCNLITLDVAHNQLEHLPKEIGNCTQITNLDLQHNELLDLPDTIGNLSSLSRLGLRYNRLSAIPRSLAKCSALEELNLENNNISTLPESLLSSLVKLNSLTLARNCFQLYPVGGPSQFSTIYSLNMEHNRINKIPFGIFSRAKVLSKLNMKDNQLTSLPLDFGTWTSMVELNLATNQLTKIPEDVSGLVSLEVLILSNNLLKKLPHGLGNLRKLRELDLEENKLESLPNEIAYLKDLQKLVLTNNQLTTLPRGIGHLTNLTHLGLGENLLTHLPEEIGTLENLEELYLNDNPNLHSLPFELALCSKLSIMSIENCPLSHLPPQIVAGGPSFIIQFLKMQGPYRAMV
modifications: GMPPNP
Regarding B1, the Kd in the assay with PP1CA-HRAS is 2000 nM; in the assay with PP1CA-KRAS, 700 nM; with PP1CA-NRAS, 4000 nM; in the assay with PP1CA-MRAS, roughly 350 nM.
